Source: a protein production outcome set (Wang et al. 2014)

Assay: label from the status in PepcDB records

MAQRQPHSPNQTLISITNDTESSSSVVSNDNTNKGWSGDNSPGIEALCAIYITYAVIISVGILGNAILIKVFFKTKSMQTVPNIFITSLAFGDLLLLLTCVPVDATHYLAEGWLFGRIGCKVLSFIRLTSVGVSVFTLTILSADRYKAVVKPLERQPSNAILKTCVKAGCVWIVSMIFALPEAIFSNVYTFRDPNKNMTFESCTSYPVSKKLLQEIHSLLCFLVFYIIPLSIISVYYSLIARTLYKSTLNIPTEEQSHARKQIESRKRIARTVLVLVALFALCWLPNHLLYLYHSFTSQTYVDPSAMHFIFTIFSRVLAFSNSCVNPFALYWLSKSFQKHFKAQLFCCKAERPEPPVADTSLTTLAVMGTVPGTGSIQMSEISVTSFTGCSVKQAEDRF
protein production: failed

MSSEEDKITRISIEPEKQTLLDHHTEKHFTAGEIVRDIIIGVSDGLTVPFALAAGLSGANASSSIVLTAGIAEVAAGAISMGLGGYLAAKSEEDHYAREMKREQEEIVAVPETEAAEVAEILAQYGIEPHEYSPVVNALRKNPQAWLDFMMRFELGLEKPDPKRALQSAFTIAIAYVLGGFIPLLPYMLIPHAMDAVVASVVITLFALFIFGYAKGHFTGSKPLRSAFETAFIGAIASAAAFCLAKVVQH
protein production: failed

MKTRLLPVAPSAGTLPGLPDAAELAVLRAWHAGLSAREAVERYLGERRAPGQSSRGILGRIRRQLAAFARRRQREDLALLFEIAATERARQGRVADQAVELLRTLPLPEPAISDDVALWLDARAVTVLRAAGIDTLADLTVRVPRRRRWWAAIPGLGQAGARRIEAFFAEHPRLTERAKALIAEQPRGVVVPWEQLRLPHEVDGSEGQFRAPRETSVLTADNDYEAVQAWLSLHESPATQRAYRKEAERLILWAIIERGRPLSSLTTEDAIAYRGFLRRPSPHERWVGPARPRASADWRPFTDGLSARSIAYSLSVLGAMFRWLIQQRYVLANPFAGIKVRGGGRTAALDASHAFSEGEWALVRTLADGLEWSYGWEAAAAQRLRFVLDFAYATGLRASELITARLGGIETDRQSDHWLSLIGKGGRAGKVALPPLARTALDRYLVERGLPVTQARWNPQTPLIGALGLDPGGGITGSRLWSVMRRFFRVAADLIERDHTALAEKLRKASPHWMRHTHASHALARGAELTTVRDNLRHASISTTSIYLHGDDVKRARQIEAAFAAK
protein production: failed

WWNWKGHEVHLDCFRNEKAPVKVILLHGVGTNGRQMSMILGGPLSKDGFETIAIDMPTYGVTKVKKGSVVKYDDWVDLACDYIDYEQQRDDRPIVLYGLSAGGMETYHVAAKNKKVKGIIGMTFLDQKNQQVRDETAKNLVMSRVGIPMAGIACNIGLENFKMKMSTASKMSALCNNEKVMEIFNRDKTSAANKASMRFLDSYGNYQPAMEPEDFDVCPILLTQPEQDKWTPLHLSTPFLNKIKKVDVKIVMLENGGHYPVEQPALDQMHDAIVEFIYKVTK
protein production: failed

GTGLHCLSIERDLMKKFHLKDAFIIPTPVNNYHASLGKAAAQYLETHLQQGDLLGIGWGETISKMLENIHFETSINLSIVTLTGGVNHYLSRKQNYLHYMQGDLHIIPTPFLASTTEMAQSILSEPSVKDMLHVASLAHTAIVGIGGLSQDATIVKEEKLTLREMTYIRSQNGAGDILGQFYNTNGDLLELSHHNRLIGTPLSILRNMNHVVGVAGGTEKIDAIYGALKGKFIHTLITDEETALSLLRKDGDC
protein production: failed

MFVNSNGYNLGVREDEVVVNDVDLPPWAKKPEDFVRINRMALESEFVSCQLHQWIDLIFGYKQRGPEAVRALNVFHYLTYEGSVNLDSITDPVLREIPEAYFIRDPHTFLLTKDFIKAMEAQIQNFGQTPSQLLIEPHPPRSSAMHLCFLPQSPLMFKDQMQQDVIMVLKFPSNSPVTHVAANTLPHLTIPAVVTVTCSRLFAVNRWHNTVGLRGAPGYSLDQAHHLPIEMDPLIANNSGVNKRQITDLVDQSIQINAHCFVVTADNRYILICGFWDKSFRVYSTETGKLTQIVFGHWDVVTCLARSESYIGGDCYIVSGSRDATLLLWYWSGRHHIIGDNPNSSDYPAPRAVLTGHDHEVVCVSVCAELGLVISGAKEGPCLVHTITGDLLRALEGPENCLFPRLISVSSEGHCIIYYERGRFSNFSINGKLLAQMEINDSTRAILLSSDGQNLVTGGDNGVVEVWQACDFKQLYIYPGCDAGIRAMDLSHDQRTLITGMASGSIVAFNIDFNRWHYEHQNRY
protein production: failed

MNRQLLLDVLPAPAPALNNYIAGPNGQALAAAHALTAGRAIYLWGPAGCGRTHLLRGLSARPEAIYIDAARAAQSLRELAEADSTAPMPRLVAVDDVHRMDDARQAGLFALYNRWRESAATGRAFALAVSGDRAPMSLPLREDLRTRLGWDLVFRLDPLSDADKLAALTAQAAERGLQLAPEVINWMLTHHERDIRKLAALLDALDRYSLATGRPITIPLLRAMLADPHSQATLEHHHHHH
protein production: not failed

MKEQSITKGFAILSIASIVAKLLSLIYVPFLTRIVGSVGMGIYGKTYDIFVFVYALTNVGLQTAISKYVSELDAVGNYKDALRAFKISRAFLLVVGTIFTIVLMLSANFIASMSQTPQMVYPIIFLAPTIMITTVLVTYKGYFQGRSQATPIAIATVIEQVANVFLSLLCAYFLIKKSVSLGVAGGTVGSSAGALMAVLYLIYIYNIYGVEKEAKRKQEPGVRRITGKKIARTLFKYGLPITLSTGLQNLGNIIDMLTVSNRLVDAANFSQSDANALYGYFSTRYKILINVPMVFITSLGYMALPAISRAYALKDKKEIKSKINFSMRVTYLLSIPSAFGLALLSENIYRYIFADSNGYKMMVIGAAMIPLTAIVLMQNVILQSVSQFYYVLFTLALSIVVKFTLNMTLVANPDINIYGAVISGMVAFVISLVLNHFRMKKTLKMKISMLKYALKPLLASIYMGIGIILSKYVISLFIDFDKLSLILGIAILLVIIAIGAFMYLHAIIILGGIKKEDIEEISPKLLRVMPRFLRKNIK
protein production: failed

MTATQITGVVLAAGRSNRLGTPKQLLPYRDTTVLGATLDVARQAGFDQLILTLGGAASAVRAAMALDGTDVVVVEDVERGCAASLRVALARVHPRATGIVLMLGDQPQVAPATLRRIIDVGPATEIMVCRYADGVGHPFWFSRTVFGELARLHGDKGVWKLVHSGRHPVRELAVDGCVPLDVDTWDDYRRLLESVPSLEHHHHHH
protein production: failed

MSLAVKPGEPLPDFLLLDPKGQPVTPATVSKPAVIVFWASWCTVCKAEFPGLHRVAEETGVPFYVISREPRDTREVVLEYMKTYPRFIPLLASDRDRPHEVAARFKVLGQPWTFVVDREGKVVALFAGRAGREALLDALLLAGADLEGHHHHHH
protein production: not failed

MRHLGLRNVISKLPAKINAAREFATSALVLIVFFGLLLILGRQFFRDSVVLEPISVPLHLEESGLNGGVAAQWLIDSIRTIQRNAASTKETKAIQATPKQINIEMPGVGFSLATIEQIIREALALPSPFIKGEIIKLGDSYQIRLRLPGAPYIHIEQPLGDKDVEKLIAKSAEKILLLKDPYIVAVDYYRKAEYKKAIEVINNMQPGADRLQSAYNELLLAAIATKQLEHEKASLHLKKADQLAPNLGVVKLNQAIQHALKKDPSTALSKYKEAKQLNLELQDDAFHSQILTELGRELVTDDSAEEKLALFRKAIDLAPENASAIIRLAEVLAHRQRPEENNEMLKLYEAAIGLVPNKPKYHFQYGKTLWEMGNKDKGCVQVKKAVELKPAMRVLANKYQCSK
protein production: failed

MEETRPIDGLTDEDIREILTRYKKIALVGASPKPERDANIVMKYLLEHGYDVYPVNPKYEEVLGRKCYPSVLDIPDKIEVVDLFVKPKLTMEYVEQAIKKGAKVVWFQYNTYNREASKKADEAGLIIVANRCMMREHERLLGEK
protein production: not failed

MNTPSRTHLVIIPSYNPGPKVYETVQAARRYWNPVWVVVDGSTDGTWEGLLKLSAEDSGLVVLGMPANRGKGAAVLRGLLTSRRKGFTHALVMDSDGQHPADRIPEFMARSQEEPDAMILGVPVFDDSAPSLRVKGRRISNWWANLETLWCGIGDSLFGFGVYPIQALCVIMQDHQWMRRFDFDPEAAVRLCWAGIRPVNLPVPVYYPKPEEGGTSHFHYWRDNALLTWMHVRLMFGFLARLPILLARIVRRPEILEHHHHHH
protein production: failed

ETLPPRQRQRALALPLRLNPRTVALGAQWRQEAGADDAAIVQRALNWVRTEFTYTLAATKRPGLHTVDEFLFRDKAGFCEQFSSSFVVLMRASGIPARVVTGYVGGIYNNLGHYWVIRRMDAHAWAEVWLPQRGWVRVDPTAAVAPERIRDTLEDRLAQNNNDASIDSHWRLADIGDWLRHSWNNLVLGFDAKRQQQLLHSFGINHLYVSQLMMLFIAFTSVSLGLMAWWLARGERERDALLRAWHRLDRHYARLGLGRTRHEPALVW
protein production: failed

MRGETELKQERSIALPLAISIIAISFAAVFVKMSSAPSSILSMYRLWIIVLLMLPIVWKKREEFSKIQIKDWGFLIGSGFFLALHFLLWFESLKHTTVASSTIILALQPIVSLVGGFFLFKERTTYSAIATMGIAILGVVCIGWGDLGLSEQAIYGDILSFLSVIAVVGYLFIGQTTVKKVSHWIYSFTVFAFAGIFMGIYNIVLQVPFTGYTKWDWTVFLLLAVVPTVSHVINNWLLNYVNATTISMSILGEPVGASILAFFLLGERLNAMQMIGSILVLFGVSVFLLQQQKRTAKNVVNEPVYTQEL
protein production: failed

MSEPVSSATVLAGGLMGASVFGLATGTDYGVVFGAFAGSVFYVATATNIGRIRLVAYFITSFIVGVLGAGLIGTKLAAITHYEKPLDALGAVIISAMCIKFLTFLNSQDLNTLFSILSRIRGGGSDGSK
protein production: failed

KLRDLDIIVTAPPAPGWGGRYWILVKLTTDDGITGWGECYAASVGPEAMRAVIEDVFARHMEGENPENIELMFRRVYSSGFTQRPDLTAIGAFSGLEIACWDILGKARGRPVWALLGGKMNPRIRAYTYLYPLPHHPITPFWTSADMAAESAADCVARGYTAVKFDPAGPYTLRGGHMPAMTDISLSVEFCRKIRAAVGDKADLLFGTHGQFTTAGAIRLGQAIEPYSPLWYEEPVPPDNVGAMAQVARAVRIPVATGERLTTKAEFAPVLREGAAAILQPALGRAGGIWEMKKVAAMAEVYNAQMAPHLYAGPVEWAANVHFAASIPNILMCESIETPFHDALIKGSIRVEGGYITPPEAPGLGIEVDEALARANPYHGTGLHLEMQEASCDYTNGNSFAGGAPHEEG
protein production: not failed

MTMREYMLGNVAIARGLLEGGVQVIAGYPGTPSSEIIDTLASREDRDYHIEWSVNEKVAMEVAVGAAWTGVRSVVTMKHVGLNVAADPFMTLAYAGTKGGLIAIVADDPSCHSSQNEQDTRRYAQFALVPCFDPSTPQEAKDMLPYAFEFSEKFEIPVIFRPTTRISHGKSDIELGEIPAEKAVPHFEKLLDRWVMLPKNARPRHTHILSIQQAMEDELAESPWNSLEIKPGAKMGVIGSGIASVYAKEALQELGLEASFLKIGTYPVPKKLILELLSTVDTVLIFEELEPVVEEQVRILAQEAGLEVSVLGKEGGFVSREGELDVSAFLEALRKAFDLDIEPDSGKVPLELAPRPPSLCAGCSHRATFYSMKKVFGKDAIYPSDIGCYTLGIQSGTVETTLCMGSSISIASGLYHAGEKRPICCSIGDSTFFHTGMNSLLNAVFNKANITVTILDNRITAMTGHQPNPGVGFTVTGEPTVEVSLAELCKAMGAGFVTVVDPYNLEETQEAFKAAKEFEGTAVVIAKQPCVISGKRAGIKRVPYIVDPEKCEGCKQCVKFGCPAIEFDEENKCAVITSLCSGCGVCAQICKFDAIREVKR
protein production: failed

MSKKSVLITSLMLFSMFFGAGNLIFPPMLGLSAGTNYLPAILGFLATSVLLPVLAIIAVVLSGENVKDMASRGGKIFGLVFPIAAYLSIGAFYALPRTGAVSYSTAVGVDNALYSGLFNFVFFAVALALSWNPNGIADKLGKWLTPALLTLIVVLVVLSVAKLDGTPGEPSSAYAQQPAGAGLLEGYMTMDAIAALAFGIVVISAFKYQKVNKVRTATVVSAFIAGILLALVYLGLGSIGQVVNGEFADGTAILNYAALSTMGQAGRIMFVAILILACMTTAVGLISATSEFFNSLLPGVKYHVWATVFALISFGVATMGLDTVLAVAAPVISFIYPSAITLVFLSLIEPLLFRLKWTYLFGIWTAVVWALFMSIPALNPFIEWAPLHSMSLGWVVPVLVASAIGLAIDWNKKGAQSVAKKESISV
protein production: failed
